Data: article PMC4845985

What was measured:
[1] = biological target: fluorescein-labelled hypusine-containing human eIF5A^C22A,C38A,C73A,C129A,T142C (human) (UniProt P63241); experiment: fluorescence polarisation; ribosomal complex titrated into 5-10 nM eIF5A-fl; 20 mM Hepes pH 7.5, 100 mM KOAc, 2.5 mM Mg(OAc)2, 1 mM DTT, 15 μM BSA; 30°C 30 min
[2] = biological target: human 60S ribosomal subunit (human (endogenous in HeLa)); experiment: fluorescence polarisation; competition: non-labeled eIF5A titrated (from 5 μM) into preformed ribosome-eIF5A-fl, ribosome 50 nM; same buffer, 30°C 30 min; apparent Ki
[3] = biological target: human reconstituted 80S ribosome (40S+60S) (human (endogenous in HeLa)); experiment: as above
[4] = biological target: human reconstituted 80S ribosome with Met-tRNAi^Met (40S+60S+Met-tRNAi^Met) (human (endogenous in HeLa)); experiment: as above
[5] = biological target: yeast pre-assembled 80S ribosome (yeast) (UniProt P26321); experiment: as above
[6] = biological target: human ribosomes (complex not specified) (human (endogenous in HeLa)); experiment: fluorescence polarisation; yeast eIF5A with human ribosomes by anisotropy change; data not shown
[7] = biological target: fluorescein-labelled hypusine-containing human eIF5A^C22A,C38A,C73A,C129A,T142C (human) (UniProt P63241); experiment: fluorescence polarisation; yeast 80S titrated into eIF5A-fl in the presence of saturating eEF2 (1 μM); same buffer, 30°C
[8] = biological target: yeast pre-assembled 80S ribosome (yeast) (UniProt P26321); experiment: fluorescence polarisation; competition: non-labeled yeast eIF5A titrated into preformed 80S-eIF5A-fl in the presence of saturating eEF2

Row | Kd [1] [nM] | Ki [5] [nM] | Molecule | also measured
1 | > 1700 | – | human 40S ribosomal subunit (complex) | –
2 | 128 | – | human 60S ribosomal subunit (complex) | –
3 | 13 | – | human reconstituted 80S ribosome (40S+60S) (complex) | –
4 | 7 | – | human reconstituted 80S ribosome with Met-tRNAi^Met (40S+60S+Met-tRNAi^Met) (complex) | –
5 | – | – | non-hypusine-containing human eIF5A^T142C (lysine-containing) (from UniProt P63241 1-154) (natural protein) | Ki [2]: 385 nM
6 | – | < 5 | non-labeled hypusine-containing human eIF5A (from UniProt P63241 1-154) (natural protein) | Ki [2]: 16 nM; Ki [3]: 12 nM; Ki [4]: < 5 nM
7 | – | – | yeast eIF5A tested on human ribosomes (data not shown) (from UniProt P23301 1-157) (natural protein) | affinity (constant not named) [6]: > 2000 nM
8 | 10 | – | yeast pre-assembled 80S ribosome (from UniProt P26321 1-297) (complex) | Kd in the presence of saturating eEF2 [7]: 41 nM
9 | – | 9 | yeast eIF5A^C39A (natural protein, hypusine (co-expressed with the modifying enzymes; position not given)) MSDEEHTFETADAGSSATYPMQCSALRKNGFVVIKSRPAKIVDMSTSKTGKHGHAKVHLVAIDIFTGKKLEDLSPSTHNMEVPVVKRNEYQLLDIDDGFLSLMNMDGDTKDDVKAPEGELGDSLQTAFDEGKDLMVTIISAMGEEAAISFKEAARTD | Ki in the presence of saturating eEF2 [8]: 51 nM
10 | – | 569 | yeast eIF5A^C39A,Q22H,L93F (natural protein, hypusine-containing (position not given)) MSDEEHTFETADAGSSATYPMHCSALRKNGFVVIKSRPAKIVDMSTSKTGKHGHAKVHLVAIDIFTGKKLEDLSPSTHNMEVPVVKRNEYQLFDIDDGFLSLMNMDGDTKDDVKAPEGELGDSLQTAFDEGKDLMVTIISAMGEEAAISFKEAARTD | Ki in the presence of saturating eEF2 [8]: 539 nM
11 | – | 189 | yeast eIF5A^C39A,K56A (natural protein, hypusine-containing (position not given)) MSDEEHTFETADAGSSATYPMQCSALRKNGFVVIKSRPAKIVDMSTSKTGKHGHAAVHLVAIDIFTGKKLEDLSPSTHNMEVPVVKRNEYQLLDIDDGFLSLMNMDGDTKDDVKAPEGELGDSLQTAFDEGKDLMVTIISAMGEEAAISFKEAARTD | Ki in the presence of saturating eEF2 [8]: 454 nM
